Results taken from article PMC12109978.
Values belong to the molecule of their own block, whether it stands above or below them.

How the values were obtained:
[1] = target: human tropomodulin 1 (Tmod1) (human) (UniProt P28289); assay: SEC; Superose 6 Increase 10/300 GL, 50 mM HEPES-Na pH 7.3, 150 mM NaCl, 1 mM DTT, 0.5 mL/min, 280 nm; 30 µM Tpm and Tmod1, or 26 µM Tpm and 13 µM Tmod4; single proteins and mixtures
[2] = target: human tropomodulin 4 (Tmod4) (human) (UniProt Q9NZQ9); assay: pull-down; His-tagged Tmod4 (6 µM) incubated 20 min with 3 to 24 µM Tpm in 30 mM HEPES-Na, 200 mM NaCl, pH 7.3, then captured on IMAC Ni-charged resin, eluted with 500 mM imidazole; SDS-PAGE, densitometry
UniProt Q9NZQ9, sequence (Q9NZQ9 whole entry): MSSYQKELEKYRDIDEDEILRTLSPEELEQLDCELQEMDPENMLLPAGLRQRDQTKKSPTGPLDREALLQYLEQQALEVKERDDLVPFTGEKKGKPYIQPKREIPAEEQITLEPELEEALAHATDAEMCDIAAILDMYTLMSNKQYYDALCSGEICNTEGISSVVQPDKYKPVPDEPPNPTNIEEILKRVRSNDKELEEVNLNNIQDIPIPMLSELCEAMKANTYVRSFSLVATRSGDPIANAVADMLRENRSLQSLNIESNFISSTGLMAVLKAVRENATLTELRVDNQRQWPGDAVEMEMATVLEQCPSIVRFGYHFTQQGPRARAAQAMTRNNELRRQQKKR

[3] = target: human tropomyosin Tpm1.1 with Ala-Ser N-terminal extension (human)

stoichiometry N (Tpm1.1 per Tmod1) [1]: 2
Tpm/Tmod ratio at which saturation is reached (Tpm/Tmod ratio) [2]: 3
Molecule: human tropomyosin Tpm1.1 with Ala-Ser N-terminal extension (natural protein)

Tpm/Tmod ratio at which saturation is reached (Tpm/Tmod ratio) [2]: 2.5
Molecule: human tropomyosin Tpm1.2 with Ala-Ser N-terminal extension (natural protein)

decrease of the sliding velocity of thin filaments containing Tpm1.1 over sheep ventricular myosin at pCa 5.2 by 500 nM Tmod1 [3]: 30%
B1: human tropomodulin 1 (Tmod1) (natural protein)
chain: MSYRRELEKYRDLDEDEILGALTEEELRTLENELDELDPDNALLPAGLRQKDQTTKAPTGPFKREELLDHLEKQAKEFKDREDLVPYTGEKRGKVWVPKQKPLDPVLESVTLEPELEEALANASDAELCDIAAILGMHTLMSNQQYYQALSSSSIMNKEGLNSVIKPTQYKPVPDEEPNSTDVEETLERIKNNDPKLEEVNLNNIRNIPIPTLKAYAEALKENSYVKKFSIVGTRSNDPVAYALAEMLKENKVLKTLNVESNFISGAGILRLVEALPYNTSLVEMKIDNQSQPLGNKVEMEIVSMLEKNATLLKFGYHFTQQGPRLRASNAMMNNNDLVRKRRLADLTGPIIPKCRSGV
